Results from US20240165140A1, “MEDICATION FOR INHIBITING DNA-PKCS” (TSINGHUA UNIVERSITY, priority 2017, published 2024).

Columns and labels:
[1] = test system: P53-deficient tumor cells (H1299-NC, A549-shP53); experiment: Cell colony formation, P53-deficient tumor cells; format: cell-based; details: Endostatin 10 μg/ml added 1 h before Etoposide 1 μM, 16 h; colonies after 14 days
Method: (§1) After the treatment, the cells were digested with trypsin, counted, and re-plated in a six-well plate with 1000 cells per well. The cells were cultured in a normal medium for 14 days to form cell colonies.

[2] = target: T1, DNA-PKcs (Homo sapiens, UniProt P78527); experiment: Endostatin-coupled CNBr-activated Sepharose 4B pull-down and co-immunoprecipitation; format: binding
T1 construct: incubated with A549 cell lysate; endogenous in cells; host or cells: A549 and H1299 cells (lysates)
T1 sequence (P78527 whole entry): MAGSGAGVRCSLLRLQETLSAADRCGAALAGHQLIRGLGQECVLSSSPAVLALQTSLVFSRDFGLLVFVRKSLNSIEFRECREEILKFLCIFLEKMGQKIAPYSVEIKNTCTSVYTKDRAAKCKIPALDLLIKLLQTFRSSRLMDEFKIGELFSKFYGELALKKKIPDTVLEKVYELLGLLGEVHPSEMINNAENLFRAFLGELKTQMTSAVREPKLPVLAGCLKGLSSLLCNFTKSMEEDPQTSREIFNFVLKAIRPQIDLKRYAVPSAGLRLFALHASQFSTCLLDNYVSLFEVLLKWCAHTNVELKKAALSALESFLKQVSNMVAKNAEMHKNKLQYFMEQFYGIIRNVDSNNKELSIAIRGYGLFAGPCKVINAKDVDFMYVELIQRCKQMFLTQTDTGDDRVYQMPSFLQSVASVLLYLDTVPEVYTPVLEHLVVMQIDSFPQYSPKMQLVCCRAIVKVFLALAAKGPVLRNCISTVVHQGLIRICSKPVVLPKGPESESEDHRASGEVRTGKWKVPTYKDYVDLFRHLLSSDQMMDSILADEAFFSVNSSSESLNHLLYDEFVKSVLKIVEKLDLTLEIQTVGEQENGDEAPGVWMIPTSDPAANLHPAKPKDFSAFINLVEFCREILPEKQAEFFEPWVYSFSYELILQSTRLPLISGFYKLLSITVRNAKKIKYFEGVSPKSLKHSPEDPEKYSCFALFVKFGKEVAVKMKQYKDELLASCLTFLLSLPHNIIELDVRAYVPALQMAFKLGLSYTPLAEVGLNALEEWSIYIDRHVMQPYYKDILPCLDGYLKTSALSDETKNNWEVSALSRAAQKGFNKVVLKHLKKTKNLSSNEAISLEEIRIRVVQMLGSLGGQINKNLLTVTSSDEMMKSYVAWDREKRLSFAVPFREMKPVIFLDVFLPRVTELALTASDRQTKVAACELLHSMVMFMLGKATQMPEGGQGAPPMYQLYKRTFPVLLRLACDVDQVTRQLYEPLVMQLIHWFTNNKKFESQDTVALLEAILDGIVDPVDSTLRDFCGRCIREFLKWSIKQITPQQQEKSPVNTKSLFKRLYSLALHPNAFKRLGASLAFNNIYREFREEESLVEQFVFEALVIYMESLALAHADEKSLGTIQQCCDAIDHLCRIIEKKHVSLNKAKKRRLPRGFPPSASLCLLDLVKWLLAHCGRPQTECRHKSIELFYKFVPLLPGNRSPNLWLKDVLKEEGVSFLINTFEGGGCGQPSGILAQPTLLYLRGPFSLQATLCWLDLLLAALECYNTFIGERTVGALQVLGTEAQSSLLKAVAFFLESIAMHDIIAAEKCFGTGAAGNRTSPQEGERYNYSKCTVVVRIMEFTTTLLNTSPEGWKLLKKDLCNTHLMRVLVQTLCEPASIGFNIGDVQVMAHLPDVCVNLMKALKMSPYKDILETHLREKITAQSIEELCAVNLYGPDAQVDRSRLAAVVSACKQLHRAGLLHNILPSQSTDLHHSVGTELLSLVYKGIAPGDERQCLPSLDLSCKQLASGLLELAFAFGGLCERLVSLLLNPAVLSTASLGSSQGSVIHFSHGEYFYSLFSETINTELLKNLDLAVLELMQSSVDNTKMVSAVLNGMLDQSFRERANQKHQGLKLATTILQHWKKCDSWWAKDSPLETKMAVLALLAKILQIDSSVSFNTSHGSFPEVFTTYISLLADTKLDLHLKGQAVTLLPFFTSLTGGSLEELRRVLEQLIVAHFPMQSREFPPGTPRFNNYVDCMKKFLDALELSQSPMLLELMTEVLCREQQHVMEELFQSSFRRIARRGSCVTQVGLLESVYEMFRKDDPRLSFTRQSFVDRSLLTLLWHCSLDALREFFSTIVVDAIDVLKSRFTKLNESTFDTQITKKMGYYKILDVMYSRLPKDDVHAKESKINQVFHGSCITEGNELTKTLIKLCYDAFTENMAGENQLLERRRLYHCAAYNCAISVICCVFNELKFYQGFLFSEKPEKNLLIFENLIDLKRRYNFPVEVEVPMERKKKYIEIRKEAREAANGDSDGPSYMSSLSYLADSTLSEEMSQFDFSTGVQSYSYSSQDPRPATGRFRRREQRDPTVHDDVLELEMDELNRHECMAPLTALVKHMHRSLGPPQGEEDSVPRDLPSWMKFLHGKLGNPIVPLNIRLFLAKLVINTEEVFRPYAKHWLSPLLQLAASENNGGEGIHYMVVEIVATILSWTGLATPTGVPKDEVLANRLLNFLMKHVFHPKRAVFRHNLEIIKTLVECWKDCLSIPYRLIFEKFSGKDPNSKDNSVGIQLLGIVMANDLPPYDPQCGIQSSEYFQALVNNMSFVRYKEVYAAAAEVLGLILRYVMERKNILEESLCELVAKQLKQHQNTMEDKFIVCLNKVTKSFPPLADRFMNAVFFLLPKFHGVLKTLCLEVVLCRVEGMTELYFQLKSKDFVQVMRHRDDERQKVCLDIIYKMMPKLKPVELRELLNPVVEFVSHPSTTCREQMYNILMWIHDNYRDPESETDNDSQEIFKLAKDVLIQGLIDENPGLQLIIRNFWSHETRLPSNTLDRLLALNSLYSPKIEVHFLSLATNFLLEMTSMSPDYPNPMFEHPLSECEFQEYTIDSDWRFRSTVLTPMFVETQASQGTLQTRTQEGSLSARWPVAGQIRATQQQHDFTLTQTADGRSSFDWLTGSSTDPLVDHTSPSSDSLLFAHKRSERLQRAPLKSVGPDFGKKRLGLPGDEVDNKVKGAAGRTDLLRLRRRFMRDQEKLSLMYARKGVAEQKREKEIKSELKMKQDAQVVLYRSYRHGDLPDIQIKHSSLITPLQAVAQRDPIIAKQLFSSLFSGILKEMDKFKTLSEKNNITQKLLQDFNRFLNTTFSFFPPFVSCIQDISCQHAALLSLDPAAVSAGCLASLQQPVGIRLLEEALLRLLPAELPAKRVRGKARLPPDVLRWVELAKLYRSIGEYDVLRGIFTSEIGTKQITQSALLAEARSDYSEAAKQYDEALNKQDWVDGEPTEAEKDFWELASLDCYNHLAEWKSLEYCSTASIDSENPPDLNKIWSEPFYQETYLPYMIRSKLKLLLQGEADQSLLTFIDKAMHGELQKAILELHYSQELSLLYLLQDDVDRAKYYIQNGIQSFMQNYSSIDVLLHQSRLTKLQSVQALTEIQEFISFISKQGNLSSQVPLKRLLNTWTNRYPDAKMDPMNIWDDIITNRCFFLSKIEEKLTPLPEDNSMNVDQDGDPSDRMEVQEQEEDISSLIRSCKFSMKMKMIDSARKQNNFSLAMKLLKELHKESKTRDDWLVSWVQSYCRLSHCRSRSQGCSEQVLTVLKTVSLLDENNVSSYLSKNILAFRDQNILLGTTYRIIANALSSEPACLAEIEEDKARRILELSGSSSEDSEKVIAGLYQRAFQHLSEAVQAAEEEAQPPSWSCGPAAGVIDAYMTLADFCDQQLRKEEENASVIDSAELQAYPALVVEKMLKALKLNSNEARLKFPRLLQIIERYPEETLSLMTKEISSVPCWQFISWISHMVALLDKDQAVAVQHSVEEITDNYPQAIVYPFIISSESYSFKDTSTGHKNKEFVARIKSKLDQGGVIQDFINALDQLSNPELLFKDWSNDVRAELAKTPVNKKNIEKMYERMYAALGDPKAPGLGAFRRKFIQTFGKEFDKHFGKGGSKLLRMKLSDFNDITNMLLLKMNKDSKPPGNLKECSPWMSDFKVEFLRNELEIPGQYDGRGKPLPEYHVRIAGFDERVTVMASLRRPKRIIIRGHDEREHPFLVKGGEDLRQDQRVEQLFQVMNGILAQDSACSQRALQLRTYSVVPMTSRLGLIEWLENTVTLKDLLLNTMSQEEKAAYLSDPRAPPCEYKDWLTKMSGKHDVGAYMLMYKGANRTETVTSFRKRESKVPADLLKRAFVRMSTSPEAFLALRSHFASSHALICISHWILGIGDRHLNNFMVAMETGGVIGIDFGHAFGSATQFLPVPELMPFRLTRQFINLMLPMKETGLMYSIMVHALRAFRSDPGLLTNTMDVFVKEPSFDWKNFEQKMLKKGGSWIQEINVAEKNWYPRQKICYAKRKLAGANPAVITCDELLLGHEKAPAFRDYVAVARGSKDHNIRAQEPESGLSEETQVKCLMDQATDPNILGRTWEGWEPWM
Method: CNBr-activated Sepharose 4B used in this example was purchased from Sigma. First, according to the instructions, endostatin and bovine serum albumin (BSA) were coupled to CNBr-activated Sepharose 4B, respectively, and incubated with A549 cell lysate. The pull down proteins were subjected to SDS-PAGE electrophoresis and stained with Coomassie blue. […] To further verify the interaction between the two, H1299 and A549 cells were incubated with Endostatin for 2 hours for endocytosis. The cell lysate was mixed with the antibody of DNA-PKcs, and then co-incubated with protein A/G beads.

[3] = test system: DNA-PKcs, PARP, γH2AX and Caspase-3 signaling pathways; experiment: Immunoblotting of DNA damage and apoptotic pathway, tumor cells with normal P53 function; details: H1299-P53, A549-NC; Endostatin 10 μg/ml, Etoposide 10 μM 16 h, z-DEVD-fmk 10 μM; Endostatin and z-DEVD-fmk added 1 h before Etoposide
Source text: In this example, tumor cells (H1299-NC, H1299-P53, A549-NC, A549-shP53) were divided into six treatment groups.

[4] = test system: tumor cells with normal P53 function (H1299-P53 and A549-NC); experiment: CCK8 cell activity, tumor cells with normal P53 function; format: cell-based
Method: (§2) First, a lentivirus kit (purchased from Shanghai Genepharma) was used to construct a P53 stably overexpressing H1299 cell line (H1299-P53) and a P53 stably knockdown A549 cell line […]. The P53 sequence targeted by the shRNA used to knock down P53 in A549 cells was 5′-[…]-3′ (SEQ ID NO: 4). Virus transfection and the construction of stable cell lines were performed according to the kit instructions. […] After treatment for 12 hours, the drug-containing medium was replaced with a normal medium and the cells were further cultured for 72 hours. Cell activity was measured according to the instructions of the CCK8 kit (Dojindo, Tokyo, Japan).
In this example, another chemical drug, Doxorubicin, was used to verify that Endostatin can enhance the sensitivity of P53-deficient tumor cells to chemotherapy. Operation process was the same as in Example 5.

[5] = test system: P53-deficient tumor cells (H1299-NC, A549-shP53); experiment: PI staining apoptosis by flow cytometry, P53-deficient tumor cells; format: cell-based; details: Endostatin 10 μg/ml added 1 h before Etoposide 1 μM, 16 h
Method: (§3) The apoptotic cells and adherent cells floating in the culture medium were collected, and the cells were suspended in 500 μl PBS containing 0.05 mg/ml propidium iodide (PI), stained for 15 min at room temperature in dark, and detected by flow cytometry (BD FACS Calibur). PI-positive cells represent apoptotic cells.

[6] = test system: γH2AX; experiment: Immunoblotting of γH2AX level (DSBs damage repair); format: cell-based; details: H1299 and A549 cells; Endostatin 10 μg/ml pretreatment 1 h, Etoposide 10 μM 1 hour, then fresh medium
Source text: In this example, the level of γH2AX was used to reflect the degree of DSBs damage. Tumor cells (including H1299 and A549 cells) were divided into eight treatment groups.

[7] = test system: mRNA levels of BAX, NOXA, PUMA, and P21; experiment: Real-time PCR of pro-apoptotic molecules, tumor cells with normal P53 function; format: cell-based; details: H1299-P53, A549-NC; Endostatin 10 μg/ml added 1 h before Etoposide 1 μM, 16 h
Method: After the cells were treated as described above, the total RNA of the cells was extracted, and the relative changes in mRNA levels of BAX, NOXA, PUMA, and P21 in the cells were detected by real-time PCR.

[8] = test system: tumor cells with normal P53 function (H1299-P53, A549-NC); experiment: PI staining apoptosis by flow cytometry, tumor cells with normal P53 function; format: cell-based; details: Endostatin 10 μg/ml added 1 h before Etoposide 1 μM, 16 h
Method: as §3

[9] = test system: tumor cells with normal P53 function (H1299-P53, A549-NC); experiment: Cell colony formation, tumor cells with normal P53 function; format: cell-based; details: Endostatin 10 μg/ml added 1 h before Etoposide 1 μM, 16 h
Method: as §1

[10] = test system: MDA-MB-435S cells; experiment: CCK8 cell activity, melanoma MDA-MB-435S; format: cell-based; details: MDA-MB-435S (P53 mutant); operation process as in Example 5
Method: as §2
This example used two cell lines of another tumor type (melanoma), the MDA-MB-435S (P53 mutant) and A375 (P53 wild type) cell lines, to verify the regulatory function of Endostatin on the chemotherapeutic sensitivity of other types of tumor cells with different P53 status. Operation process was the same as in Example 5.

[11] = test system: A549-NC tumor; experiment: Subcutaneous tumor growth in nude mice, A549-NC; format: in vivo
Method: Tumor-bearing nude mice were randomly divided into four groups with 6 to 8 animals for each group, and different drug treatments were performed. […] Tumor volume was measured every other day. 2 to 4 weeks after administration, the mice were sacrificed and the tumor tissue was removed for further use.

B1: Endostatin: recombinant natural human endostatin expressed by E. coli, from Protgen, SEQ ID NO: 2 (protein)
chain: MHSHRDFQPVLHLVALNSPLSGGMRGIRGADFQCFQQARAVGLAGTFRAFLSSRLQDLYSIVRRADRAAVPIVNLKDELLFPSWEALFSGSEGPLKPGARIFSFDGKDVLRHPTWPQKSVWHGSDPNGRRLTESYCETWRTEAPSATGQASSLLGGRLLGQSAASCHHAYIVLCIENSFMTASK
modifications: The amino acid sequence of natural human endostatin
[1]
  Effect on inhibition of tumor cell colony-forming ability by Etoposide: could enhance the inhibitory effect of Etoposide on tumor cell colony-forming ability
[2]; A549 cell lysate, BSA-coupled Sepharose as control
  Endostatin-binding protein identified by pull-down, SDS-PAGE and mass spectrometric analysis: DNA-PKcs was identified as a protein interacted with Endostatin
[2]; H1299 and A549 cell lysates
  DNA-PKcs precipitated by Endostatin-coupled CNBr-activated Sepharose 4B (immunoblotting): can be precipitated by CNBr-activated Sepharose 4B coupled with Endostatin
[2]; H1299 and A549 cells incubated with Endostatin for 2 hours
  Co-immunoprecipitation with antibody of DNA-PKcs: Endostatin could be co-precipitated by DNA-PKcs
[3]
  DNA-PKcs, PARP, γH2AX and Caspase-3 signaling pathway levels: did not affect the above-mentioned signaling pathway levels
[4]; Endostatin 10 μg/ml pretreatment 1 h, Etoposide 0, 0.1, 1, 10 μM
  Effect on the inhibitory effect of Etoposide on cell activity: did not significantly enhance the inhibitory effect of Etoposide
[4]; Operation process as in Example 5, Doxorubicin instead of Etoposide
  Effect on the inhibitory effect of Doxorubicin on cell activity: did not significantly enhance the inhibitory effect of Doxorubicin
[5]
  Effect on ability of Etoposide to promote apoptosis (PI-positive cells): could enhance the ability of Etoposide to promote the apoptosis of tumor cells
[6]
  Reduction of γH2AX level (repair of DSBs damage) after Etoposide: delayed the reduction of γH2AX level
[7]
  Effect on the pro-apoptotic effect of Etoposide (mRNA of pro-apoptotic molecules): did not significantly enhance the pro-apoptotic effect of Etoposide
[8]
  Effect on the pro-apoptotic effect of Etoposide (PI-positive cells): did not significantly enhance the pro-apoptotic effect of Etoposide
[9]
  Effect on inhibition of colony-forming ability by Etoposide: did not significantly enhance theinhibitory effect of Etoposide
[10]
  Effect on toxicity of Etoposide to tumor cells (cell activity): could enhance the toxicity of Etoposide to tumor cells
[11]; Day 27, compared with control group, Endostatin 20 mg/kg i.p. once a day, Etoposide 2 mg/kg i.p. once every two days
  tumor suppression rate: 40.9%
[11]; Endostatin 20 mg/kg i.p. once a day and Etoposide 2 mg/kg i.p. once every two days
  Effect on the inhibitory effect of Etoposide on tumor growth: could not enhance the inhibitory effect of Etoposide on tumor growth
